Values joined by “and” are separate entries in the source; they are usually repeats but may differ in a detail not shown here. Equal values may be shown once.

The test system of one data set is CCC(=O)C(C)=O. The experiment in a line: Enzyme kinetics (Lineweaver-Burk plots), Gox0644. Type of data set: biochemical, Gluconobacter oxydans. The following applies: other: Gox0644; substrate 0.025 to 10 mM. How it is done: (§1) Determination of pH and temperature optima and enzyme kinetics: The optimum pH for enzyme activities was determined by a modified method of Salusjärvi, T. et al., Appl. Microbiol. Biotechnol. 65:306-314 (2004) using the following buffer system (50 mM final concentration each): sodium acetate pH 4.5 - 6.5, potassium phosphate pH 6.5 - 8.0, Tris-HCl pH 8.0 - 10. Temperature optima for the biocatalysts were determined under standard reaction conditions at temperatures ranging from 20 - 80 °C. The Michaelis constant (Km) for the proteins was determined from purified enzyme by Lineweaver-Burk plots. Assays were performed at optimum pH for each enzyme and at 30 °C using the top substrate and a targeted substrate. The Km for each substrate was calculated using concentrations of 0.0025 to 10 mM, and the Km NAD(P)H and NAD(P) was calculated using concentrations of 0.01 to 0.5 mM
(§2) The Michaelis constants were determined from purified enzyme by Lineweaver-Burk plots. The Km and Vmax values for the substrates were calculated using concentrations of 0.025 to 10 mM, The optimal pH values and temperatures for enzyme activities are also shown in Tab. 11. Tab. 11: Summary of kinetic parameters

Another data set concerns O=CC(=O)c1ccccc1. The experiment in a line: Enzyme kinetics (Lineweaver-Burk plots), Gox0644. Type of data set: biochemical, Gluconobacter oxydans. The following applies: other: Gox0644; substrate 0.025 to 10 mM. How it is done:
as §1, §2

The next data set has as its system O=C1C=CC(=O)c2ccccc21. The experiment in a line: Enzyme kinetics (Lineweaver-Burk plots), Gox2107. The class given is biochemical, Gluconobacter oxydans. As to conditions: other: Gox2107; substrate 0.025 to 10 mM. How it is done:
as §1, §2

The subject of a further data set is C=CC(C)=O. Put plainly: Enzyme kinetics (Lineweaver-Burk plots), Gox2107. Type of data set: biochemical, Gluconobacter oxydans. The following applies: other: Gox2107; substrate 0.025 to 10 mM. How it is done: as §1, §2
Substrate in data set [1]: NC(=O)c1ccc[n+]([C@@H]2O[C@H](COP(=O)(O)OP(=O)(O)OC[C@H]3O[C@@H](n4cnc5c(N)ncnc54)[C@H](OP(=O)(O)O)[C@@H]3O)[C@@H](O)[C@H]2O)c1
Put plainly: purified protein, by the assay type. As to conditions: other: Gox1122; for the cofactor NADP.

Substrate in data set [2]: CC=O
The experiment in a line: Enzyme kinetics (Lineweaver-Burk plots), aldehyde dehydrogenase Gox1122. The class given is biochemical, Gluconobacter oxydans.

Substrate in data set [3]: C=CC(C)=O
Put plainly: purified protein, by the assay type. The following applies: other: Gox0502; substrate 0.025 to 10 mM.

Substrate in data set [4]: C=CC(C)=O
The experiment in a line: Enzyme kinetics (Lineweaver-Burk plots), Gox2684. The class given is biochemical, Gluconobacter oxydans. As to conditions: other: Gox2684; substrate 0.025 to 10 mM. How it is done: as §1, §2

Substrate in data set [5]: CCC(=O)C(C)=O
Put plainly: Enzyme kinetics (Lineweaver-Burk plots), Gox0313. Type of data set: biochemical, Gluconobacter oxydans. As to conditions: other: Gox0313; substrate 0.025 to 10 mM. The procedure:
as §1, §2

Substrate in data set [6]: CC=O
Put plainly: Enzyme kinetics (Lineweaver-Burk plots), Gox0313. The class given is biochemical, Gluconobacter oxydans. The following applies: other: Gox0313; substrate 0.025 to 10 mM. How it is done:
as §1, §2

Substrate in data set [7]: CCC(=O)C(C)=O
Put plainly: Enzyme kinetics (Lineweaver-Burk plots), Gox0646. Type of data set: biochemical, Gluconobacter oxydans. The following applies: other: Gox0646; substrate 0.025 to 10 mM. The procedure: as §1, §2

Substrate in data set [8]: CCCC(=O)C(C)=O
The experiment in a line: Enzyme kinetics (Lineweaver-Burk plots), Gox1615. The following applies: other: Gox1615; substrate 0.025 to 10 mM. Type of data set: biochemical, Gluconobacter oxydans. How it is done:
as §1, §2

Substrate in data set [9]: CC(=O)C=O
The experiment in a line: Enzyme kinetics (Lineweaver-Burk plots), Gox1615. Type of data set: biochemical, Gluconobacter oxydans. As to conditions: other: Gox1615; substrate 0.025 to 10 mM. The procedure: as §1, §2

Where [10] appears, read: other: Gox1122, aldehyde concentrations from 0.0025 to 10 mM.
Where [11] appears, read: other: Tab. 11, Gox1122, substrate 0.025 to 10 mM.

The term Km denotes the concentration of substrate that gives half-maximal velocity. With Gox0644 (Gluconobacter oxydans 621H), in the data set with CCC(=O)C(C)=O, the Km is on record as 5.6 mM and the Vmax stood at 79.0 µmol/min/mg. In addition, in the data set with O=CC(=O)c1ccccc1, the Km worked out at 4.7 mM and the Vmax worked out at 93.0 µmol/min/mg.

Gox2107 (Gluconobacter oxydans 621H): the Km in the data set on O=C1C=CC(=O)c2ccccc21 is given as 0.01 mM; in the data set with C=CC(C)=O it was 3.8 mM. For the same molecule, the values for the Vmax with O=C1C=CC(=O)c2ccccc21 and in the data set with C=CC(C)=O were 217 U/mg protein and 119 µmol/min/mg, respectively.

B1: Gox1122 (Gluconobacter oxydans 621H) (protein)
chain: MAYATINPYTGETLKTFPEATDQEVQTALTEAYDAFKSWRHTPFAERAKIMTAAANILRRDIDKYSKLLTLEMGKIYAEAKAETILSAEIFEYYAKNAEELLKAEKLPVADPKEGEAVLIHQPQGIVFAIEPWNFPFYQIARIIAPQLSAGNTVILKHASNVPQCAAAFDDLMKEAGLPKGGFRNLYAARHHTETILKDPRVCGVALTGSEGAGAVVAGIAAQALKKSTMELGGSDAFLVLDDADLEKTAKWAAFGRHWNAGQVCVSAKRLIVADAVYDRFVELYKAEVAKLIPGDPMDPKTTLAPLSSQKAADDLKAQVEEAKKHGAVVEAIGPSVPEKGAFFQPLLMTNLHENNEARLWEFFGPVTQLYRAKDDADAIRIANDSPFGLGGSVFTKDTQRGVKVAEQIYTGMVYINHPTMVKADLPFGGVARSGYGRELIGLGIKEFVNHKLIDVVDIDAPF
Regarding B1, the Michaelis constant (Km) was determined as 0.073 mM in data set [1], 0.255 mM in [2] (setting [10]) and 0.2 mM in [2] (setting [11]). In addition, the values for the Vmax in data set [2] (setting [10]) and in data set [2] (setting [11]) were 196 U/mg protein and 196 µmol/min/mg, respectively.

B2: Gox0502 (Gluconobacter oxydans 621H) (protein)
chain: MPTLFDPIDFGPIHAKNRIVMSPLTRGRADKEAVPTPIMAEYYAQRASAGLIITEATGISREGLGWPFAPGIWSDAQVEAWKPIVAGVHAKGGKIVCQLWHMGRMVHSSVTGTQPVSSSATTAPGEVHTYEGKKPFEQARAIDAADISRILNDYENAARNAIRAGFDGVQIHAANGYLIDEFLRNGTNHRTDEYGGVPENRIRFLKEVTERVIAAIGADRTGVRLSPNGDTQGCIDSAPETVFVPAAKLLQDLGVAWLELREPGPNGTFGKTDQPKLSPQIRKVFLRPLVLNQDYTFEAAQTALAEGKADAIAFGRKFISNPDLPERFARGIALQPDDMKTWYSQGPEGYTDYPSATSGPN
With B2, in data set [3], the Km was 0.1 mM and the Vmax turned out to be 21.0 µmol/min/mg.

B3: Gox2684 (Gluconobacter oxydans 621H) (protein)
chain: MTSLFEPIELGSIYAKNRILMAPLTRGRGTRDHVPTPIMAEYYAQRAGAGLIISEATGISREGLGWPYAPGLWSQEQVEAWKPITAAVHAKGGKIVAQLWHMGRMVHSSVTGQQPVSCSATKAPEALHTYDGKQAPEVARPLTKEDIARILNDYENAARNALQAGFDGVQIHAANGYLIDEFLRDGTNHRSDEYGGSPENRIRFLREVTERVIATIGAHKTSVRLSPNGDTVGCIDSHPEQVFVPAAKLLNDLDIAFLELREPGPNGTFGKTDQPKLHGPIREVFRKPLVLNQDYTREEAIETVATGVADAISFGRPFLANPDLVRRLEDNLPQNKDDIRTWYSQGAEGYTDYPLAR
For B3, in data set [4], the Km is 0.3 mM and the Vmax worked out at 11.3 µmol/min/mg.

B4: Gox0313 (Gluconobacter oxydans 621H) (protein)
chain: MADTMLAAVVREFGKPLSIERLPIPDIKPHQILVKVDTCGVCHTDLHAARGDWPSKPNPPFIPGHEGVGHIVAVGSQVGDFVKTGDVVGVPWLYSACGHCEHCLGGWETLCEKQDDTGYTVNGCFAEYVVADPNYVAHLPSTIDPLQASPVLCAGLTVYKGLKMTEARPGQWVAVSGVGGLGQMAVQYAVAMGMNVVAVDIDDEKLATAKKLGASLTVNAKDTDPARFIQQQIGGAHGALVTAVGRTAFSQAMGYARRGGTIVLNGLPPGDFPVSIFDMVMNGTTIRGSIVGTRLDMIEAMDFFARGKVKSVVTPGKLENINTIFDDLQNGRLEGRTVLDFRS
On to B4, for which, in [5], the Michaelis-Menten constant (Km) is 3.1 mM and the Vmax is reported as 97 U/mg protein. In [6], the Michaelis constant (Km) is on record as 0.5 mM and the Vmax is listed as 95 U/mg protein.

B5: Gox0646 (Gluconobacter oxydans 621H) (protein)
chain: MLNLDLSGRTALVTGSTGGIGLAIARKLGEAGATVIINGRKQEGVDSALEKLAKAIPGGAFRSVVADVGTAEGCKALFEAESSVDVLVNNAGIFGPNDFFQTTDESWEHLFEVNLFSGVRLSRAYMPGMKERNWGRVLFIASESALNIPVEMVDYGVSKTAMLGLARGLAKLMAGTNVTVNSVLPGPTLSEGVEDMLKAQNPDSTRPVAELAAEFVQKHRPSNILRRMATVDEVANLVVYAASPLASATTGAALRVDGGTVDTI
Consider B5, for which, in [7], the Km is 9 mM and 9.3 mM; the Vmax is 10 U/mg protein and 10.0 µmol/min•mg.

B6: Gox1615 (Gluconobacter oxydans 621H) (protein)
chain: MASDTIRIPGIDTPLSRVALGTWAIGGWMWGGPDDDNGVRTIHAALDEGINLIDTAPVYGFGHSEEIVGRALAEKPNKAHVATKLGLHWVGEDEKNMKVFRDSRPARIRKEVEDSLRRLRVETIDLEQIHWPDDKTPIDESARELQKLHQDGKIRALGVSNFSPEQMDIFREVAPLATIQPPLNLFERTIEKDILPYAEKHNAVVLAYGALCRGLLTGKMNRDTTFPKDDLRSNDPKFQKPNFEKYLAAMDEFEKLAEKRGKSVMAFAVRWVLDQGPVIALWGARKPGQVSGVKDVFGWSLTDEEKKAVDDILARHVPNPIDPTFMAPPARD
Take B6: in data set [8], the Michaelis-Menten constant (Km) amounted to 3.2 mM and the Vmax was determined as 6.0 µmol/min/mg. For the same molecule, in data set [9], the Michaelis-Menten constant (Km) was 3.8 mM and the Vmax came to 22.0 µmol/min/mg.

The record behind these values is patent EP2119770B1, “Production of alpha-oxyfunctionalized carbonyl compounds” (priority 2008, dated 2009).
